Source: US20030162225 (published 2003)
Where a chain is given by its changes, count along the chain named.

B1: Group I clone 1 (random region) (ssRNA)
RNA: GGGAGACAAGACUAGACGCUCAACUUUCCUAGCGCACAUGCGCACCUCUAUGCGUAAUACGAACGUUGACGUUCGACAUGAGACUCACAACAGUUCCCUUUAGUGAGGGUUAAUU
modifications: 2'-F pyrimidines
B2: Group I clone 2 (random region) (ssRNA)
RNA: B1 RNA with G32A, A69G
modifications: 2'-F pyrimidines
B3: Group I clone 3 (random region) (ssRNA)
RNA: B1 RNA with U25G, G32A, A69G
modifications: 2'-F pyrimidines
B4: Group I clone 4 (random region) (ssRNA)
RNA: B1 RNA with U26C, G32A, A69G
modifications: 2'-F pyrimidines
B5: Group I clone 5 (random region) (ssRNA)
RNA: B1 RNA with G32A, U39C, A69G
modifications: 2'-F pyrimidines
B6: Group I clone 6 (random region) (ssRNA)
RNA: B1 RNA with U26G, G32A, U39C, A69G
modifications: 2'-F pyrimidines
B7: Group I clone 7 (random region) (ssRNA)
RNA: B1 RNA with A69G
modifications: 2'-F pyrimidines
B8: Group I clone 8 (random region) (ssRNA)
RNA: GGGAGACAAGACUAGACGCUCAACUUUCGCUAGCGCACAUGCGCACCUCUAUGCGCAUAUACGAACGUUGGCGUUCGACAUGAGACUCACAACAGUUCCCUUUAGUGAGGGUUAAUU
modifications: 2'-F pyrimidines
B9: Group I clone 9 (random region) (ssRNA)
RNA: B1 RNA with U39C, A69G
modifications: 2'-F pyrimidines
B10: Group I clone 10 (random region) (ssRNA)
RNA: B1 RNA with U27C, C43U, A69G
modifications: 2'-F pyrimidines
B11: Group I clone 11 (random region) (ssRNA)
RNA: B1 RNA with C28G, A57G, A69G
modifications: 2'-F pyrimidines
B12: Group I clone 12 (random region) (ssRNA)
RNA: B1 RNA with U67C, A69G
modifications: 2'-F pyrimidines
B13: Group I clone 13 (random region) (ssRNA)
RNA: B1 RNA with U26C, C33U, A69G
modifications: 2'-F pyrimidines
B14: Group I clone 14 (random region) (ssRNA)
RNA: B1 RNA with C37U, A69G
modifications: 2'-F pyrimidines
B15: Group I clone 15 (random region) (ssRNA)
RNA: B1 RNA with C37U, C48A, A69G
modifications: 2'-F pyrimidines
B16: Group I clone 16 (random region) (ssRNA)
RNA: B1 RNA with C37U, U67C, A69G
modifications: 2'-F pyrimidines
B17: Group I clone 17 (random region) (ssRNA)
RNA: B1 RNA with C28G, G42U
modifications: 2'-F pyrimidines
B18: Group I clone 18 (random region) (ssRNA)
RNA: B1 RNA with U67A
modifications: 2'-F pyrimidines
B19: Group I clone 19 (random region) (ssRNA)
RNA: B1 RNA with U51C
modifications: 2'-F pyrimidines
B20: Group I clone 20 (random region) (ssRNA)
RNA: B1 RNA with C46U, A69G
modifications: 2'-F pyrimidines
B21: Group I clone 22 (random region) (ssRNA)
RNA: B1 RNA with G32A, C33U
modifications: 2'-F pyrimidines
B22: Group I clone 23 (random region) (ssRNA)
RNA: B1 RNA with G32A, C37U
modifications: 2'-F pyrimidines
B23: Group I clone 24 (random region) (ssRNA)
RNA: B1 RNA with C33U, C37U, C41U, A69G
modifications: 2'-F pyrimidines
B24: Group I clone 26 (random region) (ssRNA)
RNA: B1 RNA with G32A, C37U, C41U
modifications: 2'-F pyrimidines
B25: Group I clone 27 (random region) (ssRNA)
RNA: B1 RNA with G32A, G65A, U66G, C70G, G71A
modifications: 2'-F pyrimidines
B26: orphan clone 2 (random region) (ssRNA)
RNA: GGGAGACAAGACUAGACGCUCAACUCCUCUAGCACCAUAUCCAAGCUACAACUUCACAACGACUCGGCCUUCGACAUGAGACUCACAACAGUUCCCUUUAGUGAGGGUUAAUU
modifications: 2'-F pyrimidines
B27: orphan clone 3 (random region) (ssRNA)
RNA: GGGAGACAAGACUAGACGCUCAACUACGAACUCAUGACACAAGGAUGCAAUCUCAUCCCGCCAGCCCUUCGACAUGAGACUCACAACAGUUCCCUUUAGUGAGGGUUAAUU
modifications: 2'-F pyrimidines
B28: orphan clone 4 (random region) (ssRNA)
RNA: GGGAGACAAGACUAGACGCUCAACUACGUUCCUUAUCCUCCCUUCAGGAACCUGUACACCACAUUGCUUCGACAUGAGACUCACAACAGUUCCCUUUAGUGAGGGUUAAUU
modifications: 2'-F pyrimidines
B29: orphan clone 5 (random region) (ssRNA)
RNA: GGGAGACAAGACUAGACGCUCAAUAUCAACAUUAGGGCUCCUUGGGGACCAGCGUCUCCUUGCAGCCCCGAUUCGACAUGAGACUCACAACAGUUCCCUUUAGUGAGGGUUAAUU
modifications: 2'-F pyrimidines
B30: orphan clone 6 (random region) (ssRNA)
RNA: GGGAGACAAGACUAGACGCUCAAGCUGACCACCGCCAACGCAACCUCCAAUGACUUGGAUCACCUAGACGAUUUCGACAUGAGACUCACAACAGUUCCCUUUAGUGAGGGUUAAUU
modifications: 2'-F pyrimidines

Molecular target: prion protein PrP alpha-form, full-length mature, oxidized (Bos taurus, UniProt P10279 P10279:25-241)
Assay: EMSA
Conditions: tags: 6-octarepeat allele, Met-initiated, E. coli, untagged (Ni-NTA, SP-Sepharose, Superdex 75)

Sequence of prion protein PrP alpha-form, full-length mature, oxidized (P10279 25-241, one chain of several): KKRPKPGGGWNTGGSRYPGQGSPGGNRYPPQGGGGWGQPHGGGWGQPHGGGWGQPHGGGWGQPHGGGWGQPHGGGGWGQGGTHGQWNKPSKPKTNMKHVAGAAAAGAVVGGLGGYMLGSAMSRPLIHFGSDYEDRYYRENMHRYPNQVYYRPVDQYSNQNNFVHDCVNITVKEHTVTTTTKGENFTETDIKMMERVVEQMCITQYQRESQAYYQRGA

Row | Binder | binding result
1 | B1 | binds
2 | B2 | binds
3 | B3 | binds
4 | B4 | binds
5 | B5 | binds
6 | B6 | binds
7 | B7 | binds
8 | B8 | binds
9 | B9 | binds
10 | B10 | binds
11 | B11 | binds
12 | B12 | binds
13 | B13 | binds
14 | B14 | binds
15 | B15 | binds
16 | B16 | binds
17 | B17 | binds
18 | B18 | binds
19 | B19 | binds
20 | B20 | binds
21 | B21 | binds
22 | B22 | binds
23 | B23 | binds
24 | B24 | binds
25 | B25 | binds
26 | B26 | binds
27 | B27 | binds
28 | B28 | binds
29 | B29 | binds
30 | B30 | binds
